# In patent publication US20230136301A1, “Corticosteriod Reduction in Treatment with Anti-CD38 Antibody” (Janssen Biotech, Inc., priority 2021, published 2023):
# Where “and” joins values, the source holds several entries; their conditions need not be identical. Identical values can stand only once.
# Columns and labels:
# patients with RRMM [1] = assay: PAVO Part 2: DARA SC safety and efficacy
# patients with RRMM [2] = assay: PAVO Part 3: treatment-emergent adverse events with DARA SC and corticosteroid tapering
# Description: The PAVO (MMY1004) trial is an open-label, nonrandomized, multicenter, phase lb study consisting of 3 parts. […] Safety was assessed, with an emphasis on IRRs, while corticosteroids were reduced and discontinued.
# The purpose of Part 3 was to evaluate the safety of daratumumab 1,800 mg SC delivery without predose and postdose corticosteroids after a 3-week, 2-week, and 1-week tapering schedule to assess the safety of corticosteroid-free SC daratumumab administration. A total of 42 participants were treated. […] In conjunction, patients also received a 3-week, 2-week, or 1-week steroid tapering schedule (FIG. 2). The 3-week tapering schedule (corticosteroid-free by Cycle 1 Day 22) consisted of methylprednisolone (MP) given orally (PO)/IV pre-dose (Cycle 1 Day 1, 100 mg; Cycle 1 Day 8, 60 mg; Cycle 1 Day 15, 30 mg) and PO post-dose (Cycle 1 Day 1, 20 mg for 2 days; Cycle 1 Day 8, 20 mg for 1 day; Cycle 1 Day 15, 20 mg for 1 day). The 2-week tapering schedule (corticosteroid-free by Cycle 1 Day 15) consisted of MP given PO/IV pre-dose (Cycle 1 Day 1, 100 mg; Cycle 1 Day 8, 60 mg) and PO post-dose (Cycle 1 Day 1, 20 mg for 2 days; Cycle 1 Day 8, 20 mg for 1 day). The 1-week tapering schedule (corticosteroid-free by Cycle 1 Day 8) consisted of dexamethasone 20 mg administered IV pre-dose on Cycle 1 Day 1, without post-dose administration.
# The 3-week, 2-week and 1-week steroid tapering schedules were assessed by “3+3” design, followed by cohort expansion to approximately 15 patients (3-week and 2-week tapering cohorts) or 12 patients (1-week tapering cohort). The dose-limiting toxicity (DLT) assessment period in the 3-week, 2-week and 1-week tapering cohorts were Cycle 1 Day 1 through Cycle 2 Day 4, Cycle 1 Day 1 through Cycle 1 Day 25, and Cycle 1 Day 1 through Cycle 1 Day 11, respectively. […] Grade 3 or 4 IRRs only qualified as DLTs if they occurred during corticosteroid reduction or discontinuation (not during Cycle 1 Day 1). For the 3-week and 2-week groups, IRRs reported at Cycle 1 Day 1 were not considered DLTs, as corticosteroids had not yet been reduced or discontinued. Up to approximately 12 patients could be enrolled in the 1-week tapering schedule to assess safety, including IRRs.
# Safety assessments included treatment-emergent adverse events (TEAEs), serious adverse events, and IRRs. All toxicities were graded according to the National Cancer Institute's Common Terminology for the Classification of Adverse Events (NCI-CTCAE) Version 4.03 (National Cancer Institute. Common Terminology Criteria for Adverse Events (CTCAE): Version 4.03.).
# The safety and efficacy populations, defined as all patients who received ≥1 dose of study drug, was the primary population for analysis. […] The pharmacokinetic-evaluable population was defined as all patients who received ≥1 dose of study drug and provided ≥1 post-infusion pharmacokinetic sample. The immunogenicity population was defined as all patients who received ≥1 dose of study drug and provided ≥1 post-infusion immunogenicity sample.
substance,measurement,setting,value
"DARA SC: 1,800 mg daratumumab co-formulated with 30,000 U rHuPH20 (2,000 U/mL, 15 mL), manual subcutaneous injection","Lymphopenia, TEAE of Grade >3",patients with RRMM [1],20.0%
same,Serious TEAEs in SOC General disorders and administration site conditions,patients with RRMM [1],8.0%
same,TEAEs in SOC General disorders and administration site conditions,patients with RRMM [1],72.0%
same,"Grade ≥3 TEAEs, participants",patients with RRMM [2]; 1-week taper,33.3%
same,"Nausea, participants",patients with RRMM [2]; 1-week taper,16.7%
same,Nervous system disorders,patients with RRMM [2]; 1-week taper,16.7%
same,"Anemia, any grade TEAE",patients with RRMM [2]; 1-week taper n=12,4 (33.3) n (%) and 4 (33.3%) n (%)
same,"Anemia, grade ≥3 TEAE",patients with RRMM [2]; 1-week taper n=12,2 (16.7%) n (%) and 2 (16.7) n (%)
same,Any TEAE,patients with RRMM [2]; 1-week taper n=12,12 (100)^ n (%) and 12 (100.0%) n (%)
same,Any grade ≥3 TEAE,patients with RRMM [2]; 1-week taper n=12,4 (33.3) n (%) and 4 (33.3%) n (%)
same,"Arthralgia, any grade TEAE",patients with RRMM [2]; 1-week taper n=12,3 (25.0) n (%) and 3 (25.0%) n (%)
same,"Asthenia, any grade TEAE",patients with RRMM [2]; 1-week taper n=12,4 (33.3) n (%) and 4 (33.3%) n (%)
same,"Back pain, TEAE",patients with RRMM [2]; 1-week taper n=12,2 (16.7%) n (%)
same,"Blood and lymphatic system disorders (SOC), TEAE",patients with RRMM [2]; 1-week taper n=12,4 (33.3%) n (%)
same,"Blood and lymphatic system disorders (SOC), grade 3 or higher TEAE",patients with RRMM [2]; 1-week taper n=12,2 (16.7%) n (%)
same,"Bone pain, TEAE",patients with RRMM [2]; 1-week taper n=12,2 (16.7%) n (%)
same,"Bone pain, grade ≥3 TEAE",patients with RRMM [2]; 1-week taper n=12,1 (8.3) n (%) and 1 (8.3%) n (%)
same,"Chills, TEAE",patients with RRMM [2]; 1-week taper n=12,2 (16.7%) n (%)
same,"Constipation, TEAE",patients with RRMM [2]; 1-week taper n=12,2 (16.7%) n (%)
same,"Cough, any grade TEAE",patients with RRMM [2]; 1-week taper n=12,0 n (%)
same,"Decreased appetite, TEAE",patients with RRMM [2]; 1-week taper n=12,1 (8.3%) n (%)
same,"Diarrhea, any grade TEAE",patients with RRMM [2]; 1-week taper n=12,4 (33.3) n (%) and 4 (33.3%) n (%)
same,"Dizziness, any grade TEAE",patients with RRMM [2]; 1-week taper n=12,0 n (%)
same,"Erythema, any grade TEAE",patients with RRMM [2]; 1-week taper n=12,0 n (%)
same,"Fatigue, any grade TEAE",patients with RRMM [2]; 1-week taper n=12,1 (8.3) n (%) and 1 (8.3%) n (%)
same,"Gastrointestinal disorders (SOC), TEAE",patients with RRMM [2]; 1-week taper n=12,8 (66.7%) n (%)
same,"General disorders and administration site conditions (SOC), TEAE",patients with RRMM [2]; 1-week taper n=12,9 (75.0%) n (%)
same,"Headache, any grade TEAE",patients with RRMM [2]; 1-week taper n=12,1 (8.3) n (%) and 1 (8.3%) n (%)
same,"Lymphopenia, grade ≥3 TEAE",patients with RRMM [2]; 1-week taper n=12,1 (8.3) n (%) and 1 (8.3%) n (%)
same,"Metabolism and nutrition disorders (SOC), TEAE",patients with RRMM [2]; 1-week taper n=12,1 (8.3%) n (%)
same,"Muscle spasms, any grade TEAE",patients with RRMM [2]; 1-week taper n=12,3 (25.0) n (%)
same,"Musculoskeletal and connective tissue disorders (SOC), TEAE",patients with RRMM [2]; 1-week taper n=12,8 (66.7%) n (%)
same,"Musculoskeletal and connective tissue disorders (SOC), grade 3 or higher TEAE",patients with RRMM [2]; 1-week taper n=12,1 (8.3%) n (%)
same,"Nasopharyngitis, any grade TEAE",patients with RRMM [2]; 1-week taper n=12,1 (8.3) n (%) and 1 (8.3%) n (%)
same,"Nausea, any grade TEAE",patients with RRMM [2]; 1-week taper n=12,2 (16.7) n (%) and 2 (16.7%) n (%)
same,"Nervous system disorders (SOC), TEAE",patients with RRMM [2]; 1-week taper n=12,2 (16.7%) n (%)
same,"Neutropenia, grade ≥3 TEAE",patients with RRMM [2]; 1-week taper n=12,0 n (%)
same,"Oropharyngeal pain, TEAE",patients with RRMM [2]; 1-week taper n=12,0 n (%)
same,"Pain in extremity, any grade TEAE",patients with RRMM [2]; 1-week taper n=12,3 (25.0) n (%) and 3 (25.0%) n (%)
same,Patients with a serious TEAE,patients with RRMM [2]; 1-week taper n=12,4 (33.3%) n (%)
same,"Peripheral edema, any grade TEAE",patients with RRMM [2]; 1-week taper n=12,4 (33.3) n (%) and 4 (33.3%) n (%)
same,"Pyrexia, any grade TEAE",patients with RRMM [2]; 1-week taper n=12,3 (25.0) n (%) and 3 (25.0%) n (%)
same,"Respiratory, thoracic and mediastinal disorders (SOC), TEAE",patients with RRMM [2]; 1-week taper n=12,1 (8.3%) n (%)
same,"Skin and subcutaneous tissue disorders (SOC), TEAE",patients with RRMM [2]; 1-week taper n=12,0 n (%)
same,"Vomiting, TEAE",patients with RRMM [2]; 1-week taper n=12,2 (16.7%) n (%)
same,TEAEs with an outcome of death,"patients with RRMM [2]; 1-week taper, neither treatment-related",2 participants
same,Grade 5 TEAEs,"patients with RRMM [2]; 1-week taper, staphylococcal pneumonia and pulmonary embolism",2 (16.7%) n (%)
same,"Grade ≥3 TEAEs, participants",patients with RRMM [2]; 2-week taper,53.3%
same,"Nausea, participants",patients with RRMM [2]; 2-week taper,20%
same,Nervous system disorders,patients with RRMM [2]; 2-week taper,26.7%
same,TEAEs with an outcome of death,patients with RRMM [2]; 2-week taper,No deaths
same,"Anemia, any grade TEAE",patients with RRMM [2]; 2-week taper n=15,2 (13.3) n (%) and 2 (13.3%) n (%)
same,"Anemia, grade ≥3 TEAE",patients with RRMM [2]; 2-week taper n=15,1 (6.7) n (%) and 1 (6.7%) n (%)
same,Any TEAE,patients with RRMM [2]; 2-week taper n=15,15 (100)^ n (%) and 15 (100.0%) n (%)
same,Any grade ≥3 TEAE,patients with RRMM [2]; 2-week taper n=15,8 (53.3) n (%) and 8 (53.3%) n (%)
same,"Arthralgia, any grade TEAE",patients with RRMM [2]; 2-week taper n=15,4 (26.7) n (%) and 4 (26.7%) n (%)
same,"Asthenia, any grade TEAE",patients with RRMM [2]; 2-week taper n=15,2 (13.3) n (%) and 2 (13.3%) n (%)
same,"Back pain, TEAE",patients with RRMM [2]; 2-week taper n=15,3 (20.0%) n (%)
same,"Blood and lymphatic system disorders (SOC), TEAE",patients with RRMM [2]; 2-week taper n=15,3 (20.0%) n (%)
same,"Blood and lymphatic system disorders (SOC), grade 3 or higher TEAE",patients with RRMM [2]; 2-week taper n=15,3 (20.0%) n (%)
same,"Bone pain, TEAE",patients with RRMM [2]; 2-week taper n=15,3 (20.0%) n (%)
same,"Bone pain, grade ≥3 TEAE",patients with RRMM [2]; 2-week taper n=15,1 (6.7) n (%) and 1 (6.7%) n (%)
same,"Chills, TEAE",patients with RRMM [2]; 2-week taper n=15,1 (6.7%) n (%)
same,"Constipation, TEAE",patients with RRMM [2]; 2-week taper n=15,3 (20.0%) n (%)
same,"Cough, any grade TEAE",patients with RRMM [2]; 2-week taper n=15,4 (26.7) n (%) and 4 (26.7%) n (%)
same,"Decreased appetite, TEAE",patients with RRMM [2]; 2-week taper n=15,1 (6.7%) n (%)
same,"Diarrhea, any grade TEAE",patients with RRMM [2]; 2-week taper n=15,3 (20.0) n (%) and 3 (20.0%) n (%)
same,"Dizziness, any grade TEAE",patients with RRMM [2]; 2-week taper n=15,1 (6.7) n (%) and 1 (6.7%) n (%)
same,"Erythema, any grade TEAE",patients with RRMM [2]; 2-week taper n=15,4 (26.7) n (%) and 4 (26.7%) n (%)
same,"Fatigue, any grade TEAE",patients with RRMM [2]; 2-week taper n=15,4 (26.7) n (%) and 4 (26.7%) n (%)
same,"Gastrointestinal disorders (SOC), TEAE",patients with RRMM [2]; 2-week taper n=15,7 (46.7%) n (%)
same,"General disorders and administration site conditions (SOC), TEAE",patients with RRMM [2]; 2-week taper n=15,10 (66.7%) n (%)
same,"Headache, any grade TEAE",patients with RRMM [2]; 2-week taper n=15,1 (6.7) n (%) and 1 (6.7%) n (%)
same,"Lymphopenia, grade ≥3 TEAE",patients with RRMM [2]; 2-week taper n=15,0 n (%)
same,"Metabolism and nutrition disorders (SOC), TEAE",patients with RRMM [2]; 2-week taper n=15,4 (26.7%) n (%)
same,"Muscle spasms, any grade TEAE",patients with RRMM [2]; 2-week taper n=15,0 n (%)
same,"Musculoskeletal and connective tissue disorders (SOC), TEAE",patients with RRMM [2]; 2-week taper n=15,9 (60.0%) n (%)
same,"Musculoskeletal and connective tissue disorders (SOC), grade 3 or higher TEAE",patients with RRMM [2]; 2-week taper n=15,1 (6.7%) n (%)
same,"Nasopharyngitis, any grade TEAE",patients with RRMM [2]; 2-week taper n=15,5 (33.3) n (%) and 5 (33.3%) n (%)
same,"Nausea, any grade TEAE",patients with RRMM [2]; 2-week taper n=15,3 (20.0) n (%) and 3 (20.0%) n (%)
same,"Nervous system disorders (SOC), TEAE",patients with RRMM [2]; 2-week taper n=15,4 (26.7%) n (%)
same,"Neutropenia, grade ≥3 TEAE",patients with RRMM [2]; 2-week taper n=15,3 (20.0) n (%) and 3 (20.0%) n (%)
same,"Oropharyngeal pain, TEAE",patients with RRMM [2]; 2-week taper n=15,3 (20.0%) n (%)
same,"Pain in extremity, any grade TEAE",patients with RRMM [2]; 2-week taper n=15,1 (6.7) n (%) and 1 (6.7%) n (%)
same,Patients with a serious TEAE,patients with RRMM [2]; 2-week taper n=15,6 (40.0%) n (%)
same,"Peripheral edema, any grade TEAE",patients with RRMM [2]; 2-week taper n=15,0 n (%)
same,"Pyrexia, any grade TEAE",patients with RRMM [2]; 2-week taper n=15,2 (13.3) n (%) and 2 (13.3%) n (%)
same,"Respiratory, thoracic and mediastinal disorders (SOC), TEAE",patients with RRMM [2]; 2-week taper n=15,8 (53.3%) n (%)
same,"Skin and subcutaneous tissue disorders (SOC), TEAE",patients with RRMM [2]; 2-week taper n=15,5 (33.3%) n (%)
